Values joined by “and” are separate entries in the source; they are usually repeats but may differ in a detail not shown here. Equal values may be shown once.

In series [1] the target is CaMKIIα/Ca^2+/CaM complex (human) (UniProt Q9UQM7). As to the kind of experiment: AUC; sedimentation velocity of the CaMKII/Ca2+/CaM complexes, 4°C, 10 mM HEPES pH 7.5, 300 mM NaCl, 1 mM CaCl2, 5 mM DTT; heterodimer to heterotetramer, KD estimated from the proportions of the peaks.
Series [2] deals with CaMKIIγ oligomerization domain (human). As to the kind of experiment: crystal structure; isolated oligomerization domains of human CaMKIIγ (2.7 Å) and CaMKIIδ (2.8 Å).
Series [3] addresses CaMKIIδ/Ca^2+/CaM complex (human) (UniProt Q13557). Kind of series: AUC; sedimentation velocity of the CaMKII/Ca2+/CaM complexes, 4°C, 10 mM HEPES pH 7.5, 300 mM NaCl, 1 mM CaCl2, 5 mM DTT; heterodimer to heterotetramer, KD estimated from the proportions of the peaks.
In series [4] the target is CaMKI catalytic domain (human) (UniProt Q8IU85). As to the kind of experiment: ITC; VP-ITC, 10°C, 20 mM HEPES pH 7.5, 150 mM NaCl, 5 mM DTT, 1 mM CaCl2; Ca2+/CaM titrated into the kinase domains, or the peptide titrated into Ca2+/CaM; single binding site model. On the technique in general: ITC needs no label: the signal is the heat of the interaction.
Chain of CaMKI catalytic domain (human) (Q8IU85 1-333): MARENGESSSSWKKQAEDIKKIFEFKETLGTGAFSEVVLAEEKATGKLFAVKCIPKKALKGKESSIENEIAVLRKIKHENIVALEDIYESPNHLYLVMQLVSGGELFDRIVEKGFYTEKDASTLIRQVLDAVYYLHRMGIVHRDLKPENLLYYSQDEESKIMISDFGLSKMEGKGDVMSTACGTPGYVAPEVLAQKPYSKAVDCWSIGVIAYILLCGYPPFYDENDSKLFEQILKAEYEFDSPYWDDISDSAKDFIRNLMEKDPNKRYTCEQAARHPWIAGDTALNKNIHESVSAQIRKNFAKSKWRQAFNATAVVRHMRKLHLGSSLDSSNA
For series [5], the target named is CaMKIIα catalytic domain (human) (UniProt Q9UQM7). The description is as above.
For series [6], the target named is CaMKIIγ catalytic and regulatory domain (human) (UniProt Q13555). The series is described as above.
Chain of CaMKIIγ catalytic and regulatory domain (human) (Q13555 5-317): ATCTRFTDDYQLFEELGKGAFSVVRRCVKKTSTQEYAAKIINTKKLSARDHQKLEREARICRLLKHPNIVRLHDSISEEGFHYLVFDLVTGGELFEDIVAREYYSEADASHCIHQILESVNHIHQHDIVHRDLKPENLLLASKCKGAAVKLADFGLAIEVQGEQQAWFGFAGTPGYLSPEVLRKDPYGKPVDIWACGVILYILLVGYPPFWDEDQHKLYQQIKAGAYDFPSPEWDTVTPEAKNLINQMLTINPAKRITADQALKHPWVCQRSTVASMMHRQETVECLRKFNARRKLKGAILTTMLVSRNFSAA
Series [7] has as its target CaMKIV catalytic domain (human) (UniProt Q16566). The series is described as above.
The target in series [8] is CaMKIIβ catalytic domain (human) (UniProt Q13554). The description is as above.
Chain of CaMKIIβ catalytic domain (human) (Q13554 11-302): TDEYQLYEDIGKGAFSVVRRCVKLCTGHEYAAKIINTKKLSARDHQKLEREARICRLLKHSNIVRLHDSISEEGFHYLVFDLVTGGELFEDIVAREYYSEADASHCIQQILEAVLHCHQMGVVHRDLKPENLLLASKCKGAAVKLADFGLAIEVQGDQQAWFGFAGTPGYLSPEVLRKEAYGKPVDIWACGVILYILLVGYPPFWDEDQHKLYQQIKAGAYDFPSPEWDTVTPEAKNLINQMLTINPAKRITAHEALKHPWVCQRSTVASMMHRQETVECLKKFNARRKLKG
Series [9] concerns the molecule itself. As to the kind of experiment: crystal structure; isolated oligomerization domains of human CaMKIIγ (2.7 Å) and CaMKIIδ (2.8 Å).

Chain of CaMKIV catalytic domain (human) (Q16566 15-340): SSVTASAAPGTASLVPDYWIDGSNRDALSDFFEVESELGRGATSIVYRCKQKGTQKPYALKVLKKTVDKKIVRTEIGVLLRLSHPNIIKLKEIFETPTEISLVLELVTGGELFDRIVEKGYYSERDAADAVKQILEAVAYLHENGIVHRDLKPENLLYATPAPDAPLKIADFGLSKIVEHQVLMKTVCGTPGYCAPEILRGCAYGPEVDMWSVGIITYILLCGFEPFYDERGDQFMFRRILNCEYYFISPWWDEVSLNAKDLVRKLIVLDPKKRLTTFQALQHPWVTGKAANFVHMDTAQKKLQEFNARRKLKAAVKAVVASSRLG

By Kd is commonly meant the constant that tells how readily two partners part at equilibrium. For “CaMKIIα/Ca^2+/CaM complex (from UniProt Q9UQM7 13-301; P0DP23 1-149)”, the dissociation constant Kd in series [1] is 120 µM.

A word on the stoichiometry N: it is a count of units in the complex or per binding partner. “CaMKIIγ oligomerization domain (domain or fragment)”: in series [2], the stoichiometry N was 12.

Consider “CaMKIIδ/Ca^2+/CaM complex (from UniProt Q13557 11-335; P0DP23 1-149)”, for which the dissociation constant (Kd) in series [3] is 50 µM.

Turning to “calmodulin (Ca^2+/CaM) (from UniProt P0DP23 1-149) (natural protein)”, the dH in series [4] was -5.8 kcal/mol and -5.1 kcal/mol; in series [5], 12.1 kcal/mol; in [6] it was 8.6 kcal/mol; in series [7], -10.2 kcal/mol; in series [8], 8.9 kcal/mol. Moreover, the stoichiometry N in series [4] turned out to be 0.93; in series [5] it was 0.863; in [6], 0.981; in series [7] it was 0.83; in series [8] it was 0.922.

B1: CaMKIIδ oligomerization domain (domain or fragment, human, UniProt Q13557 334-475, looked up)
chain: SNTTIEDEDVKARKQEIIKVTEQLIEAINNGDFEAYTKICDPGLTAFEPEALGNLVEGMDFHRFYFENALSKSNKPIHTIILNPHVHLVGDDAACIAYIRLTQYMDGSGMPKTMQSEETRVWHRRDGKWQNVHFHRSGSPTV
Consider B1, for which the “stoichiometry N” value in [9] is 14.

These data come from publication PMC2910593 (PLoS Biology, 2010).
